Reference: the supplement of paper PMC9112550, “Optimization of the antimicrobial peptide Bac7 by deep mutational scanning” (BMC Biology, 2022)

The sequences below were run on Escherichia coli TOP10 (assay: shrunken log2 fold change of peptide-encoding DNA abundance (4.5 h post-induction vs induction); higher = less antimicrobial activity (less host growth inhibition)). Conditions: time post-induction: 4.5 h; library: site-saturation at positions 5, 18, 19, 20.
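Note: peptides expressed intracellularly from a pBAD plasmid library in pooled LB shake-flask culture, induced with 0.3% L-arabinose, DNA abundance read by NGS, three biological replicates, DESeq2 with apeglm shrinkage.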

| Sequence | shrunken log2 fold change |
| --- | --- |
| RRIRQRPPRLPRPRPRPISRPRP | -0.0404 |
| RRIRTRPPRLPRPRPRPYMDPRP | -1.37 |
| RRIRERPPRLPRPRPRPRTWPRP | -0.149 |
| RRIRFRPPRLPRPRPRPCAHPRP | -0.197 |
| RRIRMRPPRLPRPRPRPMGNPRP | 0.451 |
| RRIRWRPPRLPRPRPRPHRWPRP | 0.103 |
| RRIRIRPPRLPRPRPRPYYLPRP | -0.423 |
| RRIRMRPPRLPRPRPRPTQFPRP | 0.178 |
| RRIRVRPPRLPRPRPRPIANPRP | 0.0572 |
| RRIRLRPPRLPRPRPRPCYLPRP | -0.856 |
| RRIRHRPPRLPRPRPRPAIQPRP | 0.0477 |
| RRIRRRPPRLPRPRPRPLHSPRP | 0.357 |
| RRIRVRPPRLPRPRPRPDCLPRP | -0.318 |
| RRIRDRPPRLPRPRPRPEQCPRP | -0.00146 |
| RRIRRRPPRLPRPRPRPNWMPRP | 0.0739 |
| RRIRSRPPRLPRPRPRPVNVPRP | -0.156 |
| RRIRVRPPRLPRPRPRPRDQPRP | -0.0604 |
| RRIRQRPPRLPRPRPRPSWWPRP | -0.176 |
| RRIRNRPPRLPRPRPRPCCKPRP | -0.274 |
| RRIRPRPPRLPRPRPRPIGLPRP | 0.155 |
| RRIRVRPPRLPRPRPRPPVQPRP | 0.377 |
| RRIRLRPPRLPRPRPRPQAYPRP | -0.126 |
| RRIRPRPPRLPRPRPRPYWHPRP | -0.405 |
| RRIRPRPPRLPRPRPRPQKYPRP | -0.257 |
| RRIRHRPPRLPRPRPRPRIMPRP | -0.577 |

| Sequence | shrunken log2 fold change |
| --- | --- |
| RRIRYRPPRLPRPRPRPRWMPRP | -0.208 |
| RRIRARPPRLPRPRPRPHHWPRP | 0.145 |
| RRIRLRPPRLPRPRPRPIPLPRP | 0.0264 |
| RRIRYRPPRLPRPRPRPKMWPRP | -0.113 |
| RRIRFRPPRLPRPRPRPVGSPRP | -0.0263 |
| RRIRVRPPRLPRPRPRPWYIPRP | -0.0193 |
| RRIRRRPPRLPRPRPRPYWWPRP | -0.0898 |
| RRIRARPPRLPRPRPRPRACPRP | 0.447 |
| RRIRTRPPRLPRPRPRPNKHPRP | -0.448 |
| RRIRDRPPRLPRPRPRPDIAPRP | 0.209 |
| RRIRGRPPRLPRPRPRPRECPRP | 0.562 |
| RRIRERPPRLPRPRPRPNDTPRP | -0.348 |
| RRIRWRPPRLPRPRPRPVNTPRP | -0.0848 |
| RRIRMRPPRLPRPRPRPQLGPRP | -0.0543 |
| RRIRLRPPRLPRPRPRPAPKPRP | 0.659 |
| RRIRSRPPRLPRPRPRPMMHPRP | -0.121 |
| RRIRMRPPRLPRPRPRPSFEPRP | 0.318 |
| RRIRKRPPRLPRPRPRPLVWPRP | 0.298 |
| RRIRKRPPRLPRPRPRPEMHPRP | 0.0496 |
| RRIRNRPPRLPRPRPRPDRFPRP | -0.148 |
| RRIRWRPPRLPRPRPRPFLLPRP | -0.0846 |
| RRIRFRPPRLPRPRPRPCKPPRP | -0.109 |
| RRIRVRPPRLPRPRPRPAMYPRP | 3.58 |
| RRIRIRPPRLPRPRPRPSDLPRP | -0.0735 |
| RRIRNRPPRLPRPRPRPAIDPRP | -0.0478 |

| Sequence | shrunken log2 fold change |
| --- | --- |
| RRIRQRPPRLPRPRPRPNRIPRP | -0.0402 |
| RRIRWRPPRLPRPRPRPQRRPRP | 0.358 |
| RRIRNRPPRLPRPRPRPEDSPRP | -0.0784 |
| RRIRPRPPRLPRPRPRPNDEPRP | 0.0306 |
| RRIRDRPPRLPRPRPRPDCHPRP | 0.469 |
| RRIRIRPPRLPRPRPRPFDRPRP | 4.11 |
| RRIRQRPPRLPRPRPRPKKQPRP | -0.286 |
| RRIRWRPPRLPRPRPRPEGEPRP | 1.27 |
| RRIRIRPPRLPRPRPRPKHIPRP | -0.765 |
| RRIRTRPPRLPRPRPRPWRFPRP | -0.0156 |
| RRIRIRPPRLPRPRPRPMFKPRP | -0.286 |
| RRIRIRPPRLPRPRPRPGGLPRP | -0.16 |
| RRIRMRPPRLPRPRPRPAHQPRP | 0.397 |
| RRIRPRPPRLPRPRPRPYRNPRP | -0.558 |
| RRIRLRPPRLPRPRPRPEDYPRP | -0.0202 |
| RRIRQRPPRLPRPRPRPGDDPRP | 0.176 |
| RRIRYRPPRLPRPRPRPFSVPRP | -0.313 |
| RRIRERPPRLPRPRPRPETVPRP | 0.0162 |
| RRIRTRPPRLPRPRPRPHAVPRP | 0.0205 |
| RRIRRRPPRLPRPRPRPSNCPRP | -0.252 |
| RRIRGRPPRLPRPRPRPEPMPRP | 0.648 |
| RRIRKRPPRLPRPRPRPCGRPRP | 0.0548 |
| RRIRTRPPRLPRPRPRPEAEPRP | 0.0438 |
| RRIRPRPPRLPRPRPRPKDNPRP | -0.248 |
| RRIRCRPPRLPRPRPRPKWAPRP | 0.0877 |
